Source: PMC9798253 (Protein Science : A Publication of the Protein Society, 2023)

System: GST-TRD (TRD domain of MECP2)
Test: GST-pulldown of MBP-ADD
Assay type: binding
Conditions: 1 μg each protein; 25 mM Tris/HCl pH 8, 200 mM KCl; 1 h, 6°C; SDS-PAGE

B1: D529A/D530A/D531A triple mutation: D529A/D530A/D531A triple mutant of the ADD domain (MBP‐ADD in pulldown, mVenus‐ADD in cells) (protein)
chain: RERLVYEVRQKCRNIEDICISCGSLNVTLEHPLFVGGMCQNCKNCFLECAYQYAAAGYQSYCTICCGGREVLMCGNNNCCRCFCVECVDLLVGPGAAQAAIKEDPWNCYMCGHKGTYGLLRRREDWPSRLQMFFANNHD
modifications: left off: MBP, N-terminal, kept
- pulldown of MBP-ADD by GST-TRD: reduced
